Measurements reported in patent publication US10654939 (BEIJING MABWORKS BIOTECH, dated 2020).

How the values were obtained:
[1] = molecular target: T1, mouse CD40 expressed on HEK293A cells (mouse, UniProt P27512 20-289); assay: FACS, HEK293A/mouseCD40 cells
T1 construct: also called HEK293A/mouseCD40

[2] = molecular target: T2, recombinant human CD40 (ECD)-his (human, UniProt P25942 21-193); assay: SPR (Biacore 8K), hCD40(ECD)-his coupled to chip, antibody injected
T2 construct: Bought protein; also called hCD40(ECD)-his; TNFRSF5
Experimental: SPR assays were used to determine the binding affinity of the chimetic or humanized anti-CD40 antibodies to human CD40 with the BIAcore™ 8K instrument (GE Life Sciences). Briefly, 100-200 response units (RU) of human CD40 (ECD)-his protein (Sino Biological, CN, Cat #: 10774-H08H) were coupled to CM5 biosensor chips (Cat #: BR-1005-30, GE Life Sciences), followed by blocking of un-reacted groups with 1M ethanolamine. Serially diluted antibodies at concentrations ranging from […] were injected into the SPR running buffer (HBS-EP buffer, pH7.4, GE Life Sciences; US; Cat #: BR-1006-69) at 30 μL/minute. The binding capacity was calculated with the RUs of blank controls subtracted. The association rate (k_a) and dissociation rate (k_d) were calculated using the one-to-one Langmuir binding model (BIA Evaluation Software, GE Life Sciences). The equilibrium dissociation constant K_D was calculated as the k_d/k_a ratio.

[3] = molecular target: T3, rhesus CD40 expressed on HEK293A cells (rhesus monkey, UniProt P25942 21-277 (human entry)); assay: FACS on HEK293A/rhesus CD40 cells, serially diluted antibody (Example 14, protocol of Example 5)
T3 construct: also called HEK293A/rhesusCD40
T3 chain: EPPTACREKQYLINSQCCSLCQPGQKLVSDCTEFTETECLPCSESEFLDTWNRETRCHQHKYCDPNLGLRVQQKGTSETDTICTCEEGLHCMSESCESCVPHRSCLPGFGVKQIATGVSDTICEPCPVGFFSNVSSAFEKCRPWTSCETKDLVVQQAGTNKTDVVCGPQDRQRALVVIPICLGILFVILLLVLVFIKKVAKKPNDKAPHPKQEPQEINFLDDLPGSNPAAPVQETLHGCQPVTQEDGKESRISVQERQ
Experimental: Example 5 Mouse Anti-CD40 Monoclonal Antibodies Bound to Human and Rhesus CD40 Expressed on HEK293A Cells To further determine whether anti-CD40 antibodies bound to human, monkey or mouse CD40 expressed on HEK293A cells, a cell-based binding assay by FACS was performed using the HEK293A cells stably overexpressing human, monkey or mouse CD40 as generated in Example 1, respectively. Briefly, 10^5 HEK293A cells were seeded into each well of the 96-well plates and serially diluted anti-CD40 antibodies were added to the plates. After incubated at 4° C. for 1 hour, plates were washed 3 times with PBST. Then, an APC coupled Goat Anti-Mouse IgG (BioLegen, US, Cat #: 405308) diluted 500× was added to the plates. After incubation at 4° C. for 1 hour, the plates were washed with PBS for 3 times and then cell fluorescence was monitored using a FACS machine (BD).
The chimeric and humanized anti-CD40 antibodies were further characterized for their ability of binding to HEK293A/humanCD40 cells and HEK293A/rhesus CD40 cells, following the protocols described in Example 5. They were also tested for their ability to activate CD40 signaling in HEK-Blue assay, and to promote dendritic cell maturation, following the protocols in Example 7 and Example 9, respectively, the dendritic cells collected form three healthy human donors. IL-12(p40) secretion by the dendritic cells was measured by using human IL12(p40) ELISA kit (BD, US, Cat #: 551116) following themanufactor's instruction.

T1 sequence (P27512 20-289 limits assumed): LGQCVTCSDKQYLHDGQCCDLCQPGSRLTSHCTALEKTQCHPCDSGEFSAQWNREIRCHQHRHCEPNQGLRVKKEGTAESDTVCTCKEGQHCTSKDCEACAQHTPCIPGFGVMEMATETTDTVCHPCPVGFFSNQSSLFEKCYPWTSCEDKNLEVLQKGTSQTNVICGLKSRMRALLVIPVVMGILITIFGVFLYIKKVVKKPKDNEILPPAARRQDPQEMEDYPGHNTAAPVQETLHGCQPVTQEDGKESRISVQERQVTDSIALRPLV
T2 sequence (P25942 21-193): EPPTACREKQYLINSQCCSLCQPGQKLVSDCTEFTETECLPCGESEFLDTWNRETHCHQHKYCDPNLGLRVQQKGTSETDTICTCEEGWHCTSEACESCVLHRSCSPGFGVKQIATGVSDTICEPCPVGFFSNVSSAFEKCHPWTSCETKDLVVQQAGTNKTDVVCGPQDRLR

| Binder | binding result [1] | Kd [2] | koff [2] | kon [2] | binding result [3] | EC50 (read off the curve) [3] |
| --- | --- | --- | --- | --- | --- | --- |
| chimeric 92F6 antibody (antibody, human IgG2, kappa, V domains shown, Mouse variable regions with human IgG2/kappa constant regions) VH: QVQLEQSGAEVVKPGASVKVSCTASGFNIKDTYMHWVKQRPEQGLEWIGRIDPANGNTNYDPKFQGKATITADTSSNTGYLQLSSLTSEDTAVYYCSRWGYDWYFDVWGAGTSVTVSS VL: DIVITQSTAIMSASPGEKVTITCSASSSVSYIHWFQQKPGTSPKLWIYTTANLASGVPARFSGSGSGTSYSLTISRMEAEDAATYYCQQRSNYPFTFGSGTKLEIKR | no binding |  |  |  |  |  |
| chimeric 29A10 antibody (antibody, human IgG2, kappa, V domains shown, Mouse variable regions with human IgG2/kappa constant regions) VH: QVKLEQSGGGLVKPGGSLKLSCAASGFTFSHYYMYWVRQTPEKRLEWVATISDAGSYTYYSDSVKGRFTISRDNAKNNLYLQMSSLKSDDTAMYFCARTYYRGDGGYWFFDVWGAGTAVTVSS VL: DIVITQSTSSLAVSVGEKVTMSCESSQSLLYSSNQKNYLAWYQQKPGQSPKLLIYWASTRESGVPDRFTASGSGTDFTLTISSVKAEDLAVYYCQQYYRSPLTFGAGTKLELKR | no binding |  |  |  |  |  |
| chimeric 142F7 antibody (antibody, human IgG2, kappa, V domains shown, Mouse variable regions with human IgG2/kappa constant regions) VH: EVQLEQSGAELVRPGTSVKVSCKASGYAFTNYLIEWGIQRPGQGLEWIGVINPGTGGTNYNEKFKDKATLTTDKSSSTAYMQLSSLTSDDSAVYFCARGGSGFAYWGQGTLVTVSA VL: DIVLTQTTSSLSASLGDRVTISCRASQDINNYLNWYQQKPDGTVKLLIYYTSRLHSGVPSRFSGSGSGTDYSLTISNLEQEDIATYFCQQGNTLPWTFGGGTKLEIKR | no binding |  |  |  |  |  |
| 13A2-VH2VL2 (antibody, human IgG2, kappa, V domains shown, Humanized, human IgG2/kappa) VH: QVQLQESGPGLVKPSDTLSLTCAVSGYSITTNYYWNWIRQPPGKGLEWMGYINYDGSNNYNPSLKNRITISVDTSKNQFSLKLSSVTAVDTAVYYCARLDYWGQGTLVTVSS VL: DVVLTQSPLSLPVTLGQPASISCRSSQSLENSNGNTFLNWFQQRPGQSPRLLIYKVSNRFSGVPDRFSGSGSGTDFTLKISRVEAEDVGVYYCLQVTHVPFTFGQGTKLEIKR |  | 2.08 nM | 0.00171 s⁻¹ | 823000 M⁻¹ s⁻¹ | binds |  |
| 7B4-VH3VL3 (antibody, human IgG2, V domains shown, Humanized, human IgG2/kappa) VH: QVQLQESGPGLVKPSDTLSLTCAVSGYSITTNYYWNWIRQPPGNKLEWMGYIKYDGSNNYNPSLKNRITISVDTSKNQFSLKLSSVTAVDTAVYYCARLDYWGQGTLVTVSS VL: DVVLTQSPLSLPVTLGQPASISCRSSQSLENSNGNTFLNWFQQRPGQSPRLLIYKVSNRFSGVPDRFSGSGSGTDFTLKISRVEAEDVGVYFCLQVTHVPFTFGSGTKLEIKR |  | 2.99 nM | 0.00488 s⁻¹ | 2.13e+06 M⁻¹ s⁻¹ |  | ~0.2 µg/mL |
| 7B4-VH0VL0 (antibody, human IgG2, kappa, V domains shown, Humanized, human IgG2/kappa) VH: QVQLQESGPGLVKPSDTLSLTCAVSGYSITTNYYWNWIRQPPGKGLEWIGYIKYDGSNNYNPSLKNRVTMSVDTSKNQFSLKLSSVTAVDTAVYYCARLDYWGQGTLVTVSS VL: DVVMTQSPLSLPVTLGQPASISCRSSQSLENSNGNTFLNWFQQRPGQSPRRLIYKVSNRFSGVPDRFSGSGSGTDFTLKISRVEAEDVGVYYCLQVTHVPFTFGQGTKLEIKR |  | 2.47 nM | 0.0068 s⁻¹ | 2.75e+06 M⁻¹ s⁻¹ |  | ~0.2 µg/mL |
| 7B4-VH3VL2 (antibody, human IgG2, V domains shown, Humanized, human IgG2/kappa) VH: QVQLQESGPGLVKPSDTLSLTCAVSGYSITTNYYWNWIRQPPGNKLEWMGYIKYDGSNNYNPSLKNRITISVDTSKNQFSLKLSSVTAVDTAVYYCARLDYWGQGTLVTVSS VL: DVVLTQSPLSLPVTLGQPASISCRSSQSLENSNGNTFLNWFQQRPGQSPRLLIYKVSNRFSGVPDRFSGSGSGTDFTLKISRVEAEDVGVYYCLQVTHVPFTFGQGTKLEIKR |  | 4.2 nM | 0.00615 s⁻¹ | 1.46e+06 M⁻¹ s⁻¹ |  | ~0.2 µg/mL |
| 7B4-VH2VL3 (antibody, human IgG2, kappa, V domains shown, Humanized, human IgG2/kappa) VH: QVQLQESGPGLVKPSDTLSLTCAVSGYSITTNYYWNWIRQPPGKGLEWMGYIKYDGSNNYNPSLKNRITISVDTSKNQFSLKLSSVTAVDTAVYYCARLDYWGQGTLVTVSS VL: DVVLTQSPLSLPVTLGQPASISCRSSQSLENSNGNTFLNWFQQRPGQSPRLLIYKVSNRFSGVPDRFSGSGSGTDFTLKISRVEAEDVGVYFCLQVTHVPFTFGSGTKLEIKR |  | 3.6 nM | 0.00639 s⁻¹ | 1.78e+06 M⁻¹ s⁻¹ |  | ~0.2 µg/mL |
| 13A2-VH0VL0 (antibody, human IgG2, kappa, V domains shown, Humanized, human IgG2/kappa) VH: QVQLQESGPGLVKPSDTLSLTCAVSGYSITTNYYWNWIRQPPGKGLEWIGYINYDGSNNYNPSLKNRVTMSVDTSKNQFSLKLSSVTAVDTAVYYCARLDYWGQGTLVTVSS VL: DVVMTQSPLSLPVTLGQPASISCRSSQSLENSNGNTFLNWFQQRPGQSPRRLIYKVSNRFSGVPDRFSGSGSGTDFTLKISRVEAEDVGVYYCLQVTHVPFTFGQGTKLEIKR |  | 28.8 nM | 0.0114 s⁻¹ | 396000 M⁻¹ s⁻¹ | binds |  |
| 13A2-VH2VL3 (antibody, human IgG2, kappa, V domains shown, Humanized, human IgG2/kappa) VH: QVQLQESGPGLVKPSDTLSLTCAVSGYSITTNYYWNWIRQPPGKGLEWMGYINYDGSNNYNPSLKNRITISVDTSKNQFSLKLSSVTAVDTAVYYCARLDYWGQGTLVTVSS VL: DVVLTQSPLSLPVTLGQPASISCRSSQSLENSNGNTFLNWFQQRPGQSPRLLIYKVSNRFSGVPDRFSGSGSGTDFTLKISRVEAEDVGVYFCLQVTHVPFTFGSGTKLEIKR |  | 3.55 nM | 0.00261 s⁻¹ | 735000 M⁻¹ s⁻¹ | binds |  |
| chimeric 50F6 antibody (antibody, human IgG2, kappa, V domains shown, Mouse variable regions with human IgG2/kappa constant regions) VH: QVQLEQSGDDLVKPGASVKLSCKASGYTFTTYWINWIKQRPGQGLEWIGRISPGSGSTHYNEMFKGKATLTVDTSSSTAYIQLSSLSSEDSAVYFCTRNDYWGQGTTLTVSS VL: DIVLTQSPLSLPVSLGDQASISCRSSQSIVNSNGNTYLEWYLQKPGQSPKLLIYKVSNRFSGVPDRFSGSGSGTDFTLKISRVEAEDLGVYYCFQGSHVPLTFGAGTKLELKR | no binding |  |  |  |  |  |
| chimeric 77D9 antibody (antibody, human IgG2, kappa, V domains shown, Mouse variable regions with human IgG2/kappa constant regions) VH: QVKLEESGGGLVKPGGSLKLSCAASGFTFRNYAMSWVRQSPGERLEWVAEVSGSGYYTYYPDTVTGRFTISRDNANNTLYLEVSSLRSEDTAMYYCTSRAYWGQGTLVTVSA VL: IVMTQSPTLSLPVSLGDQASISCRSSQSIVLTNGNTYLEWYLQRPGQSPKLLIYKVSNRFSGVPDRFSGSGSGTDFTLKISRVEAEDLGVYYCFQGSHVPYTFGGGTKLEIKR | no binding |  |  |  |  |  |
| chimeric 7B4 antibody (antibody, human IgG2, kappa, V domains shown, Mouse variable regions with human IgG2/kappa constant regions) VH: EVQLQESGPGLVKPSQSLSLTCSVTGYSITTNYYWNWIRQFPGNKLEWMGYIKYDGSNNYNPSLKNRISITRDTSKNQFFLKLNSVTTEDTATYYCARLDYWGQGTSVTVSS VL: DIVLTQSPLSLPVSLGDQASISCRSSQSLENSNGNTFLNWFLQKPGQSPQLLIYKVSNRFSGVLDRFSGTGSGTDFTLTISRVEAEDLGVYFCLQVTHVPFTFGSGTKLEIKR | no binding | 3.6 nM | 0.0036 s⁻¹ | 1e+06 M⁻¹ s⁻¹ |  |  |
| chimeric 16A6 antibody (antibody, human IgG2, kappa, V domains shown, Mouse variable regions with human IgG2/kappa constant regions) VH: EVQLEQSGPGLVKPSQSLSLTCSVTGYSITTNYHWNWIRQFPGNKLEWMGYIKYDGSNNYNPSLKNRISITRDTSKNQFFLKLNSVTTEDTATYYCARLDYWGQGTSVTVSS VL: DIVLTQSTLSLSVSLGDQASISCRSSQSLENSNGNTFLNWFLQKPGQSPQLLIYKVSNRFSGVLDRFSGTGSGTDLTLTISRVEAEDLGVYFCLQVTHVPFTFGSGTKLEIKR | no binding |  |  |  |  |  |
